This is an account of results in the RNAGym collection of RNA variant scans (doi:10.7554/elife.80360).

Sequences and labels used below:
B1: Hairpin Ribozyme (parent)
chain: GUCCUCUUUCACGUGCGCGUGAAAGAGAGAAGUGAACCAGAGAAACACACGUUGUGGUAUAUUACCUGGUA

In the series the parent is B1. Briefly: self-cleavage, relative activity (ratio to wild type); higher = more cleavage; co-transcriptional.
GUCCUCUUUCACGUGCGGGUGAAAGAGAGAAGUGAACCAGAGAAACACACGUUGUGCUAUAUUACCUGGUA: the self-cleavage worked out at 0.194.
As to GUCCUCUUUCACGUGCGAGCGAAAGAGAGAAGUGAACCAGAGAAACACACGUUGUGGUAUAUUACCUGGUA, the self-cleavage was determined as 0.97.
Regarding GUCCUCUUUCACGUGCGGGUGAAAGAGAGAAGUGAACCAGAUAAACACACGUUGUGGUAUAUUACCUGGUA, the self-cleavage was determined as 0.279.
On to GUCCUCUUUCACGUGCGGGUGAAAGAGAGAAGUGAACCAGAAAAACACACGUUGUGGUAUAUUACCUGGUA, for which the self-cleavage turned out to be 0.179.
For GUCCUCUUUCACGUGCGGGUGAAAGAGAGAAGGGAACCAGAGAAACACACGUUGUGGUAUAUUACCUGGUA the value was 0.123; for GUCCUCUUUCACGUGCGGGUGAAAGAGAGAAGCGAACCAGAGAAACACACGUUGUGGUAUAUUACCUGGUA, 0.164; for GUCCUCUUUCACGUGCGGGUGAAAGAGAGAAGUGAACCAGAGAAUCACACGUUGUGGUAUAUUACCUGGUA, 0.228.
GUCCUCUUUCACGUGCGGGUGAAAGAGAGAAGUGACCCAGAGAAACACACGUUGUGGUAUAUUACCUGGUA: the self-cleavage is 0.473.
For GUCCUCUUUCACGUGCGGGUGAAAGAGAGAAGUGAACCAGAGAAACGCACGUUGUGGUAUAUUACCUGGUA the value was 0.198; for GUCCUCUUUCACGUGCGGGUGAAAGAGAGAAGUGAACCAGAGAAACACACCUUGUGGUAUAUUACCUGGUA, 1.01.
In the case of GUCCUCUUUCACGUGCGAGUGAAAGAGAGAAGUGAACCAGAGAAACACACGUUGUGGUAUAUUACCUGGAA, the self-cleavage came out at 0.916.
For GUCCUCUUUCACGUGCGUGUGAAAGCGAGAAGUGAACCAGAGAAACACACGUUGUGGUAUAUUACCUGGUA the value was 0.525; for GUCCUCUUUCACGUGCGGGUGAAAGAGAGAAGUGAACCAGAGAAACACACGUUGUGGUAUAUUACCUGGGA, 0.537; for GUCCUCUUUCACGUGCGGGUGAAAGAGAGAAGUGAACCAGAGAAACACACGUUGUGGUAUAUUACCUGUUA, 0.162.
For GUCCUCUUUCACGUGCGGGUGAAAGAGAGAAGUGAACCAGAGAAACACACGUUGUGGUAUAUUAACUGGUA, the self-cleavage amounted to 0.871.
For GUCCUCUUUCACGUGCGGGUGAAAGAGAGAAGUGAACCAGAGAAACACACGUUGUGGUAUAUUAUCUGGUA the value was 0.213; for GUCCUCUUUCACGUGCGAGUGAAAGAGAGAAGUGAACCAGAGAAACACACGUUGUGGUAUAUUACCUGUUA, 0.339; for GUCCUCUUUCACGUGCGAGUGAAAGAGAGAAGUGAACCAGAGAAACACACGUUGUGGUAUAUUACCUGCUA, 0.403.
For GUCCUCUUUCACGUGCGGGUGAAAGAGAGAAGUGCACCAGAGAAACACACGUUGUGGUAUAUUACCUGGUA, the self-cleavage turned out to be 0.797.
Next, GUCCUCUUUCACGUGCGGGUGAAAGAGAGAAGUGAACCAGAGAAACACAUGUUGUGGUAUAUUACCUGGUA: 0.24.
For GUCCUCUUUCACGUGCGUGUGAAGGAGAGAAGUGAACCAGAGAAACACACGUUGUGGUAUAUUACCUGGUA the value was 1.04.
Next, GUCCUCUUUCACGUGCGUGUGAAUGAGAGAAGUGAACCAGAGAAACACACGUUGUGGUAUAUUACCUGGUA: 0.844; GUCCUCUUUCACGUGCGAGUGAAAGAGAGAAGUGAACCAGAGAAACACACGUUGUGGUAUAUUACCGGGUA: 0.329.
For GUCCUCUUUCACGUGCGAGUGAAAGAGAGAAGUGAACCAGAGAAACACACGUUGUGGUAUAUUACCAGGUA, the self-cleavage was found to be 0.191.
Next, GUCCUCUUUCACGUGCGGGUGAAAGAGCGAAGUGAACCAGAGAAACACACGUUGUGGUAUAUUACCUGGUA: 0.445; GUCCUCUUUCACGUGCGGGUGAAAGAGGGAAGUGAACCAGAGAAACACACGUUGUGGUAUAUUACCUGGUA: 1.11; GUCCUCUUUCACGUGCGGGUGAACGAGAGAAGUGAACCAGAGAAACACACGUUGUGGUAUAUUACCUGGUA: 0.731.
Consider GUCCUCUUUCACGUGCGGGUGAAGGAGAGAAGUGAACCAGAGAAACACACGUUGUGGUAUAUUACCUGGUA, for which the self-cleavage came to 0.927.
For GUCCUCUUUCACGUGCGUGUGAAAGAGAGUAGUGAACCAGAGAAACACACGUUGUGGUAUAUUACCUGGUA the value was 0.203; for GUCCUCUUUCACGUGCGGGUGAAAGAGAGAAGUGAACCAGAGAAACACACGUUGUGGUAUAAUACCUGGUA, 0.2; for GUCCUCUUUCACGUGCGGGUGAAAGAGAGAAGUGAACCAGAGAAACACACGUUGUGGUAUACUACCUGGUA, 0.2.
For GUCCUCUUUCACGUGCGUGUGAAAGAGUGAAGUGAACCAGAGAAACACACGUUGUGGUAUAUUACCUGGUA the value was 0.606; for GUCCUCUUUCACGUGCGUGUGAAAGAGCGAAGUGAACCAGAGAAACACACGUUGUGGUAUAUUACCUGGUA, 0.66.
For the variant GUCCUCUUUCACGUGCGGGGGAAAGAGAGAAGUGAACCAGAGAAACACACGUUGUGGUAUAUUACCUGGUA, the self-cleavage is 0.724.
Regarding GUCCUCUUUCACGUGCGAGUGAAAGAGAGAAGUGAACCAGAGAAACACACGUUGUGGAAUAUUACCUGGUA, the self-cleavage came to 0.577.
As to GUCCUCUUUCACGUGCGAGUGAAAGAGAGAAGUGAACCAGAGAAACACACGUUGUGGGAUAUUACCUGGUA, the self-cleavage came out at 0.652.
In the case of GUCCUCUUUCACGUGCGGGUGAAAGAGAGAAGUGAACCAGAGAAACACACGUUGUGGUAUAUUACCUGGUC, the self-cleavage worked out at 1.35.
With GUCCUCUUUCACGUGCGGGUGAAAGAGAGAAGUGAACCAGAGGAACACACGUUGUGGUAUAUUACCUGGUA, the self-cleavage was 0.0801.
